The values below come from patent US20090298778A1.

The target of test [1] is mixture of ACPA-positive IgGs (IgG fraction of an equal-parts mixture of 38 sera from patients suffering from RA having a high serum ACPA titer). The test can be described thus: cell-based or functional assay.
The target is the same in test [2]. The test can be described thus: competition ELISA: soluble competitor preincubated 2 h with IgG ACPA+ (16 µg/ml), binding to coated citrullinated fibrinogen. On the technique in general: An ELISA detects its analyte on a solid surface through an enzyme-linked reagent.

Non-standard residues stand in square brackets, D forms with d. No end group written: not given here. Cit = NC(=O)NCCC[C@H](N)C(=O)O

B1: β60-74cit60, 72, 74 peptide (peptide)
peptide: [Cit]PAPPPISGGGY[Cit]A[Cit]-NH2
modifications: N-terminus assumed
SMILES: CC[C@H](C)[C@H](NC(=O)[C@@H]1CCCN1C(=O)[C@@H]1CCCN1C(=O)[C@@H]1CCCN1C(=O)[C@H](C)NC(=O)[C@@H]1CCCN1C(=O)[C@@H](N)CCCNC(N)=O)C(=O)N[C@@H](CO)C(=O)NCC(=O)NCC(=O)NCC(=O)N[C@@H](Cc1ccc(O)cc1)C(=O)N[C@@H](CCCNC(N)=O)C(=O)N[C@@H](C)C(=O)N[C@@H](CCCNC(N)=O)C(N)=O
Take B1: in test [1], the amount of TNF-α secreted by macrophages; peptide at 0.8 mg/ml as competitor of IC formation on coated citrullinated fibrinogen was 40 pg/mL and the amount of TNF-α secreted by macrophages; peptide at 4 mg/ml as competitor of IC formation on coated citrullinated fibrinogen is less than 20 pg/mL. For the same molecule, the percentage inhibition (plateau value) in test [2] is 60%.

B2: α36-50cit38, 42 peptide (peptide)
peptide: GP[Cit]VVE[Cit]HQSACKDS
As for B2, the percentage inhibition (plateau value) in test [2] turned out to be 15%.

B3: mixture of α36-50cit38, 42 and β60-74cit60, 72, 74 peptides (peptide)
peptide 1: GP[Cit]VVE[Cit]HQSACKDS
peptide 2: [Cit]PAPPPISGGGY[Cit]A[Cit]-NH2
modifications: also: mixture of two free peptides, not a complex
As for B3, the percentage inhibition (plateau value) in test [2] is 70%.
